3 molecules from US20030022275, “HUMAN NK-3 RELATED PROSTATE SPECIFIC GENE-1” (published 2003) can be followed below.

The target in series [1] is T1, NKX3.1 homeodomain (NKX3.1HD) (Homo sapiens, UniProt Q99801 SEQ:122-188). The series can be described thus: EMSA; human protein stated to behave identically to murine. The following applies: tags: N-terminal 6xHis (pQE-9, E. coli); label: 32P. On the procedure:
(§1) The DNA binding experiments were performed as follows. Briefly, increasing amounts of protein were incubated in binding buffer [10 mM Tris-HCl ([…]), 50 mM NaCl, 5% glycerol, 5% sucrose, 0.2 mM EDTA, 7.5 mM MgCl₂, 0.5 mg/mL bovine serum albumin, 0.1% NP-40, 10 mM DTT, 500 μg of poly-didC] with 4×10⁴ cpm of ³²P-labeled, double stranded oligonucleotide for 20 min at room temperature. The sequences of the DNA binding sites were as follows (top strand shown):
(§2) The DNA binding specificity of NKX3.1HD was examined by gel mobility shift analysis using various DNA sites identified for NK-like and Antennapedia-like homeodomains. The DNA sites were as follows: (i) the consensus DNA site for the NKX2.1 homeodomain (TCAAGTG) (Guazzi, S. et al., EMBO J. 9:3631-3639 (1990)) and a mutated version of this site that contains nucleotide substitutions within the CAAG core (TCACGTG); and (ii) the consensus DNA site identified for an Antennapedia-like homeodomain (Msx1) (CTAATTG), a mutated version of this site that contains nucleotide substitutions within the TAAT core (CTACTTG), or one that contains nucleotide substitutions 3′ of the TAAT core (CTAATGG) (Catron, K. M. et al., Mol. Cell. Biol. 13;2354-2365 (1993); Guazzi, S. et al., EMBO J. 9:3631-3639 (1990)). […]

The target in series [2] is T1, NKX3.1 homeodomain (NKX3.1HD). The series can be described thus: EMSA; human protein stated to behave identically to murine in DNA binding. The following applies: tags: N-terminal 6xHis (pQE-9, E. coli); label: 32P. On the procedure: as §1, §2
A general note: A gel shift assay detects complexes by their altered migration in electrophoresis.

B1: mutated C site (CACG) (dsDNA)
DNA 1: CACTGCCCAGTCACGTGTTCGTGA
DNA 2: TCACGAACACGTGACTGGGCAGTG
In the case of B1, the binding result in series [1] is “no binding”.

B2: C site (NKX2.1 consensus, CAAG core) (dsDNA)
DNA 1: CACTGCCCAGTCAAGTGTTCTTGA
DNA 2: TCAAGAACACTTGACTGGGCAGTG
For B2, the binding result in series [2] is “binds”.

B3: site 6-19 (mutated TAAT core) (dsDNA)
DNA 1: ACACTACTTGGAGGC
DNA 2: GCCTCCAAGTAGTGT
Turning to B3, the binding result in series [1] is listed as “no binding”.
